Experimental data as given in publication PMC10140031.

Tests used:
[1] = molecular target: His-C3d-Avi, biotinylated; assay: SPR
[2] = molecular target: His-C3d-Avi, biotinylated (human); assay: SPR; biotinylated His-C3d-Avi immobilised on Series S sensor chip CAP, BIAcore T200, 25 °C; 20 mM HEPES pH 7.5, 150 mM NaCl, 3 mM EDTA, 0.005% TWEEN-20; analytes ISG65 and ISG65 mutants 1.5-100 nM
[3] = molecular target: His-ISG65_(18-363)-Avi, C-terminally biotinylated (T. b. gambiense); assay: SPR; biotinylated His-ISG65_(18-363)-Avi immobilised on Series S sensor chip CAP, BIAcore T200, 25 °C; 20 mM HEPES pH 7.5, 150 mM NaCl, 3 mM EDTA, 0.005% TWEEN-20; analytes C3d and C3d mutants (0.78-50 nM), native C3, C3b, C3MA, C3c
[4] = molecular target: native human complement C3 (human) (UniProt P01024)
[5] = molecular target: Alexa Fluor 594 labelled human C3b (human) (UniProt P01024); assay: flow cytometry on cells; competition: recombinant ISG65 at 1.5-fold molar excess preincubated with AF594 labelled C3b for 10 min before addition to T. b. gambiense cells on ice
[6] = molecular target: His-ISG65_(18-363) Lys97Ala (T. b. gambiense); assay: SPR; His-ISG65_(18-363) covalently immobilised via amine coupling; C3a (8-0.25 µM) flown over at 30 µl/min, 100 s association, 300 s dissociation; regeneration 1 M NaCl
[7] = molecular target: His-ISG65_(18-363), extracellular domain of invariant surface glycoprotein 65 of T. b. gambiense (T. b. gambiense); assay: as above
[8] = molecular target: His-ISG65_(18-363) Glu302Ala (T. b. gambiense); assay: as above
[9] = molecular target: His-ISG65_(18-363), extracellular domain of invariant surface glycoprotein 65 of T. b. gambiense (T. b. gambiense); assay: cross-linking; ISG65 and C3b mixed 2:1, 100x molar excess of DSA, 20 mM HEPES pH 7.5, 150 mM NaCl, room temperature 30 min; SDS-PAGE

Chain of human complement C3a (P01024 672-748): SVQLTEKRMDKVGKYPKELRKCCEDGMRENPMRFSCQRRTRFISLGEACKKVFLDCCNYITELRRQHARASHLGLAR
Chain of native human complement C3 (human) (P01024 23-667, chain 1 of 2): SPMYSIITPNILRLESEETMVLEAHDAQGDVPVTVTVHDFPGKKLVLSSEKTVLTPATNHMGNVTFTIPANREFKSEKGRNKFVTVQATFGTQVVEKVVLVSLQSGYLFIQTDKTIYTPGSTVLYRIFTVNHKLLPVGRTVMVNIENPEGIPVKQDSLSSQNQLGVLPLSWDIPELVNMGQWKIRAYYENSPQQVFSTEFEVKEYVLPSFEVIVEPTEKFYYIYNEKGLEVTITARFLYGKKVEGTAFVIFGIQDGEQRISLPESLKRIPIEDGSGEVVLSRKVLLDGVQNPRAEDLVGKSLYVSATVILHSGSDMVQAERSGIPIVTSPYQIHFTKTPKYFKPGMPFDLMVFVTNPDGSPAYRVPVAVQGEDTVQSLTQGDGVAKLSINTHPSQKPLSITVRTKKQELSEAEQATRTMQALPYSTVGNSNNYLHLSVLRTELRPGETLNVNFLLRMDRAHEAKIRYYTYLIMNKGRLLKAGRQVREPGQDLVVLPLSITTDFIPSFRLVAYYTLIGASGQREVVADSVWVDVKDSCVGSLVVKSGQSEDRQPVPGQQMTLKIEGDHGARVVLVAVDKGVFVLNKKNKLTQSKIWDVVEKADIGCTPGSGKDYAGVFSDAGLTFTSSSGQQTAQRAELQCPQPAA
Chain of native human complement C3 (human) (P01024 672-1663, chain 2 of 2): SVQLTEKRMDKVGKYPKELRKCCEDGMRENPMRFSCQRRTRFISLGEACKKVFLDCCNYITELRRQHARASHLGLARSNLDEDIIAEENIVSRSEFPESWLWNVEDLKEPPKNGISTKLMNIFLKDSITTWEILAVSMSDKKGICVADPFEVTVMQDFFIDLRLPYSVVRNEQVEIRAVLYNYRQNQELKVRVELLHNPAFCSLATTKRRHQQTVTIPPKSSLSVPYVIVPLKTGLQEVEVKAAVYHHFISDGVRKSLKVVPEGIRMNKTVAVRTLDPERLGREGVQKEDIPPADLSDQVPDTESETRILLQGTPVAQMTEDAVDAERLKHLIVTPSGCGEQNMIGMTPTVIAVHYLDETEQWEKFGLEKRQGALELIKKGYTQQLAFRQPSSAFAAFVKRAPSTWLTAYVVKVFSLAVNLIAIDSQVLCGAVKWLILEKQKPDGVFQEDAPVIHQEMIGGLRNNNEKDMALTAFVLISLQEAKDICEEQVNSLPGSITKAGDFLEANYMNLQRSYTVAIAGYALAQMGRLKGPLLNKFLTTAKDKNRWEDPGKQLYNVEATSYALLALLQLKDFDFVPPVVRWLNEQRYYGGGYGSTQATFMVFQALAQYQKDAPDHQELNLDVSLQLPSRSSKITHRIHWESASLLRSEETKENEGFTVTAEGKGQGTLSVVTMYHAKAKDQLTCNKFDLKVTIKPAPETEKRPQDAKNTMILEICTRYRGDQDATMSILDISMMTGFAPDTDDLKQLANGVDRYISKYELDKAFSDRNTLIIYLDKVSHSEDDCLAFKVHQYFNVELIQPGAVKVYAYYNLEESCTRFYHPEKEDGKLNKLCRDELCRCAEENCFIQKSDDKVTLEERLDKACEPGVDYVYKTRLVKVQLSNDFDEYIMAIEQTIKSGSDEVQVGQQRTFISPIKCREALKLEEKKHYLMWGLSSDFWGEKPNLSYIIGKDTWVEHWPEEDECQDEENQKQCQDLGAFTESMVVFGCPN
Chain of Alexa Fluor 594 labelled human C3b (human) (P01024 23-667, chain 1 of 2): as the sequence (P01024 23-667, chain 1 of 2) above
Chain of Alexa Fluor 594 labelled human C3b (human) (P01024 749-1663, chain 2 of 2): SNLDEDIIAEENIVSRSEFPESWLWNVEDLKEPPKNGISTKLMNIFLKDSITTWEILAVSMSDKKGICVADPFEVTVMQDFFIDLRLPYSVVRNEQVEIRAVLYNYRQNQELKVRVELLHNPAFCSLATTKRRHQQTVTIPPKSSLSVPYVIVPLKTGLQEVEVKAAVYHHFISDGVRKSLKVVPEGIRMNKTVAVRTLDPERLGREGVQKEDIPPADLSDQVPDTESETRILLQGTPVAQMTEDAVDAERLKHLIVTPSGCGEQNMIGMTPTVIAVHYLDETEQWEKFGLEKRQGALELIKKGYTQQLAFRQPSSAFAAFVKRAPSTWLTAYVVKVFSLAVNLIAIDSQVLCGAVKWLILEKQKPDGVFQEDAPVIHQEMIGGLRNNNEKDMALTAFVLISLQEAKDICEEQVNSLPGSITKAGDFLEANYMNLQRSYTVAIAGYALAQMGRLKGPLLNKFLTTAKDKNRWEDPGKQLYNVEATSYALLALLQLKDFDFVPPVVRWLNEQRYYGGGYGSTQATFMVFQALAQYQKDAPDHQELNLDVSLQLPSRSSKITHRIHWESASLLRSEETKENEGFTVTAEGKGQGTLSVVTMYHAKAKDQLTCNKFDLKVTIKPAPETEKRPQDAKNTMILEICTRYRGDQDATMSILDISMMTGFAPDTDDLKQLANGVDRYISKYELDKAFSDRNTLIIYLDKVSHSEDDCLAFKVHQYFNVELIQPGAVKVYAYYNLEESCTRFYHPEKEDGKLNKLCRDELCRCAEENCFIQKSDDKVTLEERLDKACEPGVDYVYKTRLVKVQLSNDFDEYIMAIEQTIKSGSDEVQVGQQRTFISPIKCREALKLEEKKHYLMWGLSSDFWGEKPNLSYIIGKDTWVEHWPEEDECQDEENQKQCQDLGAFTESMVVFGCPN

Substance: His-ISG65_(18-363), extracellular domain of invariant surface glycoprotein 65 of T. b. gambiense Y70A
- percent of parent [1]: 36%

Substance: His-ISG65_(18-363) Trp211Ala (domain or fragment)
- KD relative to wild type (so in the source) [2]: 42%

Substance: His-C3d, recombinant human C3d (domain or fragment)
- Kd [3]: 7 nM

Substance: His-ISG65_(18-363), extracellular domain of invariant surface glycoprotein 65 of T. b. gambiense (domain or fragment)
- AP50 haemolysis assay: lysis of rabbit erythrocytes in human serum after activation of the alternative pathway, soluble ISG65 7.5-0 µM [4]: < 90%
- percent reduction of C3b surface binding to T. b. gambiense cells [5]: 60%

Substance: human complement C3a (from UniProt P01024 672-748) (domain or fragment)
- Kd [6]: 80000 nM
- Kd [7]: 18000 nM
- Kd [8]: 78000 nM

Substance: His-ISG65_(18-363), extracellular domain of invariant surface glycoprotein 65 of T. b. gambiense T297A
- percent of parent [1]: 15%

Substance: His-C3d Arg1134Ala (domain or fragment)
- KD relative to wild type (so in the source) [3]: 30%

Substance: C3MA, methylamine-treated human C3 (from UniProt P01024 23-667; P01024 672-1663) (natural protein)
- Kd [3]: 18 nM

Substance: native human complement C3 (from UniProt P01024 23-667; P01024 672-1663) (natural protein)
- Kd [3]: 130 nM

Substance: human complement C3b (from UniProt P01024 23-667; P01024 749-1663) (domain or fragment)
- stoichiometry N [9]: 1
- Kd [3]: 81 nM
